We go through 19 sequences from the DeepSol protein solubility set.

The data set in a line: soluble on expression in E. coli; label from the status in PepcDB or PDB records.
“PGAPRRLIDAALAAGAQGLVIEAMGSGNVGTDIGVALGEALDAGIPVVISTRVPRGEVFGAYGGAGGGKTLASKGAVNSTYFRSGQARVLLAIAIASGVHPATLL”: the “soluble on expression in E. coli” value is given as “not soluble”.
With “YIDVKRMMYTLIVSFVFSRVVDSVLDGAYAAKGILIVSNHSEEIGQSLMASLERGVTYLNGEGAYSQVEKRVLYTVVSPREIMEVKRIANEIDEKAFVSIINVHEAIGEGFTYAKPSKQRRFKLKQ”, the “soluble on expression in E. coli” value is reported as “not soluble”.
To “MEYKSPVYGIIAVPIEKIESNDYNPNAVAPPEMQLLYKSIKEDGYTMPIVCYYNEEKDKYIIVDGFHRYRVMLENEDIYDRENGLLPVSVIDKSLDERMASTIRHNRARGSHNVDLMSKIITELCEIGKSDEWISKHLGMEVDEILRLKQITGLAYLFKDKEFGNAWIPFGSDIEEEN” belongs “not soluble”.
On to “MSIVTVQLGQCGNQIGFEVFDALFRDSHCSQGLCSKRDNEAYQASCRERFFREEENGVPVARAVLVDMEPKVINQTLSKAAQSGRWNYGQHTSFCQKQGSGNNWAYGYSVHGPKHEESIMNLIQTEVEKCDSLSGFFIIMSMAGGTGSGLGAFVTQKLQDQYSSSLKMNQIIWPYGTGEVIVQNYNSILTLSHLYRSSDALLIHENDAVHKICAKRMNIKQISFRDLNQVLAHQLGSVFQPTYSEDSSFHYRRNPLGDLMEHLVPHPEFKMLGVRNIPQMSAASLAYSAFTWAGLLKHLRQMLISSAKMEEGINWQVRPPLTGLPPIGKASAHKEHHFNTSLANLVVLRGREVHSADVEGFKDPALYTSWLEPVDAFSVWKTQRAFDKYEKSAALVSNSQLLVKPLDMIVGKAWNMFSSKAFIHQYTKFGMEEEDFLDSFALLEQVVASYGSLGP”, for which the “soluble on expression in E. coli” value is on record as “not soluble”.
On to “MLPPPRREPDWSAQAFRWHRQGLAGWLEAVHEPHAVALDRLACVDAQREQLLANTRQFVAGLPANNVLLTGARGTGKSSLVKALLPEFGRDGLRLIEIDREHLADLPQLVELLSGRPERFVLFCDDLSFEHGDAGYKALKSALDGGLARRCDNLLVYATSNRRHLLPEQMSENREGWLRDGEIHPGEAVEEKVSLSDRFGLWLSFYPFDQDAYLAAVREWLGHFGLKYGDKAERAALQWSLSRGSRSGRVAWQFACHWAGSQKLARRSGKKLEHHHHHH”, for which the “soluble on expression in E. coli” value is reported as “not soluble”.
“MGDTMQQRLTQDLTQFLASLPEDDRIKAINEIRMAIHQVSPFREEPVDCVLWVKNSQLMPNDYNPNNVAPPEKKLLQKSIEIDGFTQPIVVTHTDKNAMEIVDGFHRHEIGKGSSSLKLRLKGYLPVTCLEGTRNQRIAATIRHNRARGRHQITAMSEIVRELSQLGWDDNKIGKELGMDSDEVLRLKQINGLQELFADRQYSRAWTVK”: the “soluble on expression in E. coli” value is “soluble”.
With “MGYIEELRKIVGTRPLILAGVGVAVIDDYGRILLQKRRDGLWGVPGGLLELGESTEEAARREVLEETGLEIGELELIDVFSGQKYFVRLPNGDQYYPVTIVYCTRDIRGGELGEDGKESLEVKFFFLHELPNELSPLFQDLVEHYFGS”, the “soluble on expression in E. coli” value was “soluble”.
Take “MSKLAELQAETREIIEDLLNDGSEPNALYIIEHHIAHHDFDLLEKIAVDAFKAGYEVSEAEEFKDDDGKPIFCFDIISEVELKAEIIDAQQKEILPLLEKHNGIYDGWGTYFEDPNADDDEYGDDGEFLDDEDEYGDDGEFFDDEDEEEPRVH”: the “soluble on expression in E. coli” value is “not soluble”.
With “MGSDKIHHHHHHMLKVSDLRLKYPNGQRKIFDHLNITIQDKEKVLLLGPSGCGKSTLLNVLSGIVPNLIELPMKYDELIVDPLSGVIFQDPDSQFCMPKVYEELAFVLENRQVPREDMDALIINALNMVNLNVTPETYIKDLSGGMKQKLAIVETILQQSKTLFLDEPTAMLDVQATEDLWTKLIELWEDQTVVIVEHKVKHIWNHVDRVILMDYNGNIIADECPEIILQKYVHLLSEYGVWHPRAWEFAPSRVDFPTTNSHLLQFKNGRIIRGKSTLLSFSDLEIGLGEWITITGANGSGKTTLLESIMQLIKYQGDVYFENQRLTKIKHAAKHMYLVYQNPELQFITNSVYDEINIHFNHLSKDQSDDETIQLLKLLDLQNVKDQHPYELSIGQKRRLSVATALSSKADIIFLDEPTFGLDSHNTFQLIKLFQKRINLGQSIVMVTHDDEIIERYPSRRLKISDGALLDCDGDTNV”, the “soluble on expression in E. coli” value was “not soluble”.
As to “MQNNSYGYAVSVRVGGKEHRHWERYDIDSDFLIPADSFDFVIGRLGPEAAIPDLSGESCEVVIDGQIVMTGIIGSQRHGKSKGSRELSLSGRDLAGFLVDCSAPQLNVKGMTVLDAAKKLAAPWPQIKAVVLKAENNPALGKIDIEPGETVWQALTHIANSVGLHPWLEPDGTLVVGGADYSSPPVATLCWSRTDSRCNIERMDIEWDTDNRFSEVTFLAQSHGRSGDSAKHDLKWVYKDPTMTLHRPKTVVVSDADNLAALQKQAKKQLADWRLEGFTLTITVGGHKTRDGVLWQPGLRVHVIDDEHGIDAVFFLMGRRFMLSRMDGTQTELRLKEDGIWTPDAYPKKAEAARKRKGKRKGVSHKGKKGGKKQAETAVFE”, the “soluble on expression in E. coli” value is listed as “soluble”.
On to “MYEEFRDVITFQSYVEQSNGEGGKTYKWVDEFTAAAHVQPISQEEYYKAQQLQTPIGYNIYTPYDDRIDKKMRVIYRGKIVTFIGDPVDLSGLQEITRIKGKEDGAYVG”, for which the “soluble on expression in E. coli” value is “soluble”.
The value for “MGKGDSIIVAVRVRPFNDREKTRNCKLVIEMPDEETTVIRDPKTNDEKRFTYDHSYWSHDGFSEKKNGYLEPTDPHYADQRRVFEDLGRGVLANAWAGYNCSLFAYGQTGSGKSYSIVGFKNNKGIVPIVCEELFKQIADNKKKNMQFEVFVSMMEIYCEKVRDLLSSTPPPKGGLKVREHPKNGFYVENLTTVPVNSFKEIEAKIEEGTKSRTIAATQMNATSSRAHTIVKITFNQKSSKQAGGTSMKKSEINLVDLAGSERQSAAGTEGDRLKEGIVINQSLTTLGRVIKALHDSQKAKSGKKTQIPYRDSVLTCLLKNALGGNSKTIMIAAISPADINFEETLSTLRFADRAKSIKTNAVVNENQTERALRELREENLRLQSQIQGGTAGDASNEEIEKLRRQLAENQKEMEEMEKSWQQKIAEEAAKHASGASEKVEMEAKKKKMCHLWNLNEDPALTNVIVHFIPVGESVVGNKPTSSGNFIQMSGLSILPQHVTLKNDGNNQIHLSPCSEDLDIFINGKPVHGETQLQQNDRVFFGGNHLYVFNNPTKKGIRTDITYENAQAEIAQNHAAALGNRGLGGGSKRDLILEEELMSTLPLVQRANAMATELGRNVKFEIVLVSPEMRGLTSGLTEIWVKVHNISEDTYFLWEKSRFMNRYYGMQEMYEAKQDGSEDWNMPKERDPFYEPPDSPVFIASSVVFLQSLAYLIDVEEQFPIVDLSGQEIGLLTVGLSPCSTTGKELRGEYVEDPDQLIGKNIAFKVKVISAVGLPRRILKSNCKYRFFGSKKMTTTATVSGNTPAYGHEETFQFKPVTKEVADYLANSNLYITFWGTQRPRGASSRKNSISTIGSNEAREGPNKAKRVERLVHQAKTSENRNISVKALETVLKGVDDNENRKTRKQSMKKAGSTTIKSRSGSKKPKAK” was “not soluble”; that for “MSLKILVVGPSWVGDMMMSQSLYRTLRARYPQAIIDVMAPAWCRPLLSRMPEVNEAIPMPLGHGALAIGERRKLGHSVRERRYDRAYVLPNSFKSALVPFFANIPLRTGWRGEMRYGLLNDARVLDKDAWPLMVERYVALAYDNGVMRCAKDLPQPLVWPQLQVNEGEKSQACSAFNLSNDRPIIGFCPGAEFGPAKRWPHYHYAALAKKLIDDGYQIALFGSAKDNEAGKEIIAAISSEQQAWCRNLAGETQLEQAVILIAACKAVVTNDSGLMHVAAALDRPLVALYGPSSPDFTPPLSHKARVIRLITGYHKVRKGDAAEGYHQSLIDITPERVLQELNELLAEKTEHEEAEGGSHHHHHH” was “soluble”.
Turning to “MPNYRGRHQTRQNWSSKPREEHSPSKGAYRDKIWSGPVSEVARQQTVYDWVTTGAYSLGSPDSWPSYPDEIILMNESRNAQTSRMSRRSATPGPRLSQDRRTRTTAPAVAPIPFQRAQPRVEVERQRIDEPVAQDLIIDDGNGTNNSNDSSICGFVEESEELVYPQWVYYLYPLIPTAPNCNNEKSYKEGGNWYNSP”, the “soluble on expression in E. coli” value is “not soluble”.
For “TTTLAFRFQGGIIVAVDSRATAGNWVASQTVKRVIEINPFLLGTMAGGAADCQFWETWLGSQCRLHELREKERISVAAASKILSNLVYQYKGAGLSMGTMICGYTRKEGPTIYYVDSDGTRLKGDIFCVGSGQTFAYGVLDSNYKWDLSVEDALYLGKRSILAAAHRDAYSGGSVNLYHVTEDGWIYHGNHDVGELFWKVKEEEGSFNNVIG”, the “soluble on expression in E. coli” value was “soluble”.
Regarding “MKMKHMKPYTTMKTVLSTLAIALAFGPLHNAQACTRILYETGNQSYISGRSMDWADPSAATALWVFPKGMKRDGTVGDNPIKWSAKYGSIIVSFYDAGTADGMNEKGLVANMLYLKEAKWGDATKAGKPTLTAGAWAQYFLDNYATVEEAVTAMANPPFTIIAPSLPNGDAAALHLSISDVNGDSAIFEYIDGKLVIHHGSQYKVMTNSPTFDQQLALNTYWQQIGGSKFLPGTINAADRFVRASYALSASPKYRDNDLALASVFSQIRAVSVPLGITDPDRPNLAMTLWRTFADHTAKIYYFESAVFPAVSWLDMSKVDLTEGAAPKVVRVERGQPLAGELSAALKPAEPFKWLGAE”, the “soluble on expression in E. coli” value is recorded as “not soluble”.
For “MSLTKTEGKTASAAVKDILLSNPDGLREVIRTVMQEVLEAEMDEALGAAKGERTPERLGYRSGHYGRTLITRVGKLELRVPQDRSGHFSTELFERYQRSERALVATLAEMYVQGVSTRKVKAITEELCGHAFSASSISAINKRLDESLKAFAERSLQEPFAYLILDARYEKVREAGVVMSQAVLIAVGIDWDGRRQILSVEMAGRESRCAWKNFLVRLKGRGLKGVELVVSDDHAGLVAAIGEVIPEAAWQRCYVHFLRNALDHLPRKHGDDCLQELRWLYDRRDLDEAKADLAAWLGKWSVRYPRLTSWVEETIEQTLTFFRLPRQHHKHLKSTNMLERLNEEIRRRTYVVRIFPNTESCLRLVRALAVETHENWMEANRYINMDDLREHKKLALRQAAEGHHHHHH”, the “soluble on expression in E. coli” value is recorded as “soluble”.
The value for “MGSDKIHHHHHHMNEMWLHRADLAESAINERHASRLWMLPRTNLAVVAWPPTAKERLFYRWHYWWQAHYLDCLIDAASRRTTKARKQRIRDTIVGIRLRNLGRLTKNNYYDDKSWLALALDRERRLNKRAKREYLRVLEGNIAAGQDDIQGVLPWRVGEHFFNVPTNGPAAIMLARNGEVEQARKLVDWIFDNLINDKGLVMDGLRMSMRGPEIVDPVYPYCQGVVIGACIEIAEALPFEESVQYLAHARAVIHAVAKEMATPEGVINAATGDGDGGLFKGILMRYLADAAVRLPEDGPANIATKKIAKRLVMASAESVWEHRLEVDGLPVFATDWCDDARLPHNYGVGGSALSDIVRVVRIDERDLSVQLSGWMLLEAAARVSLVD” was “not soluble”; that for “MAHHHHHHMANYQQQYTNAEYTLPNFFETASTVAKVLTPGGRTPTVLAVDVSGQPLLPPPPPESDFAVPEPGQLEKLLCAYVGPSHTLGLSPKQLFDEEIRARNLEMEERKKEMRAITEQYERELRECMMESEQRSVVEDARRAIDLADREALEERKRPLRMYLNHNIIPLLSKGLVEVCKRRPVDPVDFLAEWLMLHNPHDDSCFEL” was “not soluble”.
